Measured values published in patent publication US9827292B2, “Use of KGF in the treatment of menopausal disorders” (Università degli Studi di Roma “La Sapienza”, priority 2012, dated 2017).

B1: keratinocyte growth factor (protein, listed as Homo sapiens)
chain: MHKWILTWILPTLLYRSCFHIICLVGTISLACNDMTPEQMATNVNCSSPERHTRSYDYMEGGDIRVRRLFCRTQWYLRIDKRGKVKGTQEMKNNYNIMEIRTVAVGIVAIKGVESEFYLAMNKEGKLYAKKECNEDCNFKELILENHYNTYASAKWTHNGGEMFVALNQKGIPVRGKKTKKEQKTAHFLPMAIT
notes: human recombinant KGF (Upstate Biotechnology)

Columns and labels:
[1] = test system: human oestrogen-sensitive keratinocytes (KCs); assay: Proliferation of primary vaginal keratinocytes (Ki67 immunofluorescence; crystal violet); format: cell-based; details: for proliferative effect in the presence of tamoxifen: tamoxifen 100 nM, anti-Ki67 and crystal violet, FIG. 1D
Description: (§1) The oestrogen receptor α-positive MCF-7 human breast adenocarcinoma cell line, acquired from American Type Culture Collection (no. HTB-22, ATCC-LGC Promochem, Teddington, UK), was cultured in Dulbecco's modified eagle's medium (DMEM; Invitrogen, Karlsruhe, Germany), supplemented with 10% foetal bovine serum (FBS; Invitrogen) and antibiotics. Primary cultures of human oestrogen-sensitive keratinocytes (KCs) were established from 1 cm^2 full-thickness mucosal biopsy of the vaginal vestibule. Following enzymatic dissociation, the keratinocytes were seeded onto culture plates coated with collagen IV (10 mg/ml), as previously reported [Panici et al, 2007], and were maintained in basal medium of the keratinocytes (KBM, Lonza) supplemented with aliquots of KGM (Lonza), with medium change twice a week. For all the experiments with 17β-oestradiol (E2) and tamoxifen, the MCF-7 cells were cultivated in DMEM without phenol red with 10% FBS treated with dextran/carbon (Invitrogen), and the KCs were transferred to a steroid medium of reduced concentration (KGM without EGF and BPE). […]
The cells, grown on glass coverslips, were treated as described above, then fixed in 4% paraformaldehyde in phosphate-buffered saline (PBS) for 30 min at 25° C., followed by treatment with 0.1 M glycine in PBS for 20 min at 25° C. and with 0.1% Triton X-100 in PBS for an additional 5 min at 25° C. to allow permeabilisation. To assess cell proliferation, the cells were incubated with an anti-Ki67 rabbit polyclonal antibody (1:50 in PBS; Zymed Laboratories, San Francisco, Calif.), which identifies cycling cells. The primary antibody was visualised using Texas Red conjugated goat anti-rabbit IgG (1:100 in PBS; Jackson ImmunoResearch Laboratories, West Grove, Pa.). The nuclei were visualised using 4′,6-diamido-2-phenylindole dihydrochloride (DAPI) (1:10000 in PBS; Sigma-Aldrich). Fluorescence signals were analysed by recording stained images using a cooled CCD colour digital camera SPOT-2 (Diagnostic Instruments Incorporated, Sterling Heights, Mich.) and Axiovision software (Carl Zeiss Inc., Oberkochen, Germany).
The percentage of Ki67-positive cells was evaluated by counting, for each treatment, a total of 500 cells, randomly taken from ten microscopic fields in three different experiments, expressed as mean value±95% CI and recorded as graphs. For the experiments concerning localisation of ERα, the cytoskeleton of actin was visualised using TRITC phalloidin (1:100 in PBS) and ERα was visualised using an anti-ERα monoclonal antibody (Santa Cruz) (1:100 in PBS). The stained single and combined images were captured using Zeiss Apotome® and AxioVision software (Carl Zeiss, Jena, Germany) using 40× lenses.
To evaluate the cytotoxicity of cells treated with tamoxifen, the MCF-7 cells were treated as described above, fixed for 10 min in a solution of 10% acetic acid-10% methanol, stained with crystal violet (1% w/v) and photographed using a Power Shot G5 digital camera (Canon, Inc., Tokyo, Japan).

MAPK p38 = assay: Western blot of p38 phosphorylation in MCF-7 cells; format: cell-based, human; details: 20 ng/ml, 5 or 30 minutes, FIG. 2B
Description: as §1, with “week.” for “week. For all the experiments with 17β-oestradiol (E2) and tamoxifen, the MCF-7 cells were cultivated in DMEM without phenol red with 10% FBS treated with dextran/carbon (Invitrogen), and the KCs were transferred to a steroid medium of reduced concentration (KGM without EGF and BPE).”
(§2) MCF-7 cells untreated or treated with KGF or E2 were lysed in RIPA buffer. […] The bound antibody was detected by enhanced chemiluminescence detection reagents (Pierce Biotechnology, Inc, Rockford, Ill., USA), according to manufacturer's instructions. […] Densitometric analysis was performed using Quantity One Program (Bio-Rad Laboratories srl, Segrate, MI, Italy).

ERalpha [2] = assay: Nucleocytoplasmic fractionation and Western blot for ER in MCF-7 cells; format: cell-based, human; details: 5 or 30 min treatment, FIG. 4A
Description: (§3) The oestrogen receptor α-positive MCF-7 human breast adenocarcinoma cell line, acquired from American Type Culture Collection (no. HTB-22, ATCC-LGC Promochem, Teddington, UK), was cultured in Dulbecco's modified eagle's medium (DMEM; Invitrogen, Karlsruhe, Germany), supplemented with 10% foetal bovine serum (FBS; Invitrogen) and antibiotics. Primary cultures of human oestrogen-sensitive keratinocytes (KCs) were established from 1 cm^2 full-thickness mucosal biopsy of the vaginal vestibule. […]
as §2
The cells were harvested in PBS and centrifuged at 2000 rpm for 5 minutes to obtain a pellet, resuspended in cellular lysis buffer containing Hepes 10 mM pH 8, 50 mM NaCl, 1 mM EDTA pH 8, 0.2% TritonX100, sucrose 500 mM and protease inhibitors, stirred, and placed in ice for 15 min. […] The efficiency of the fractionation was analysed by means of immunoblotting using an anti-β-tubulin antibody as cytoplasmic marker and an anti-lamin B antibody as nuclear marker.

ERalpha [3] = assay: Immunofluorescence localisation of ER in MCF-7 cells; format: cell-based, human; details: 5 or 30 min treatment, FIG. 4B
Description: as §3
The cells, grown on glass coverslips, were treated as described above, then fixed in 4% paraformaldehyde in phosphate-buffered saline (PBS) for 30 min at 25° C., followed by treatment with 0.1 M glycine in PBS for 20 min at 25° C. and with 0.1% Triton X-100 in PBS for an additional 5 min at 25° C. to allow permeabilisation. […] Fluorescence signals were analysed by recording stained images using a cooled CCD colour digital camera SPOT-2 (Diagnostic Instruments Incorporated, Sterling Heights, Mich.) and Axiovision software (Carl Zeiss Inc., Oberkochen, Germany).
The percentage of Ki67-positive cells was evaluated by counting, for each treatment, a total of 500 cells, randomly taken from ten microscopic fields in three different experiments, expressed as mean value±95% CI and recorded as graphs. […]

Row | Molecule | efficacy in terms of cell proliferation of E2 compared to KGF (Ki67-positive cells) ([1]; low doses (0.5 ng/ml), 24 h, FIG. 1A) [fold increase] | proliferative effect in the presence of tamoxifen [1] | phosphorylation of p38 (MAPK p38) | redistribution of ER between cytoplasmic and nuclear fractions (ERalpha [2]) | cellular localisation of ER by immunofluorescence (ERalpha [3]) | proliferative effect compared to E2 (Ki67-positive cells) ([1]; 20 ng/ml for KGF and 2.7 ng/ml for E2, FIG. 1A) | stimulation of proliferation of the vaginal epithelium in pre-menopausal and post-menopausal populations ([1]; 20 ng/ml, KC from pre-menopausal and post-menopausal women, FIG. 1B)
1 | C[C@]12CC[C@@H]3c4ccc(O)cc4CC[C@H]3[C@@H]1CC[C@@H]2O [E2, 17β-oestradiol] | 1.2 | inhibited by the presence of tamoxifen | able to phosphorylate the protein p38 | dramatic redistribution of ER in the nucleus | movement of ER in the nucleus |  | 
2 | B1 |  | able to stimulate cell proliferation even in the presence of tamoxifen | able to phosphorylate the protein p38 | does not appear able to induce any significant redistribution of the receptor in the nucleus | unexpected localisation of ER on the plasmatic membrane | absolutely comparable to that of the hormone | able to stimulate proliferation of the vaginal epithelium in a manner comparable to that of oestradiol
